B3: Sec16 central conserved domain (residues 984–1421) (domain or fragment, S. cerevisiae, UniProt P48415 984-1421, looked up)
chain: DNEALLRRQFPIFHWSAANKVVYAVPPIPDQSQYMISSSIVQEIKVTPIDQIIKPNDMLKSFPGPLGSAKLKKKDLTKWMETTIKSISENESSTDMTIWQLLEMKLNDKVNWKNISKLLYNSDELLMYLSQPFPNGDMIPNAYRLDINCQMRVLAFLQTGNHDEALRLALSKRDYAIALLVGSLMGKDRWSEVIQKYLYEGFTAGPNDQKELAHFLLLIFQVFVGNSKMAIKSFYTNNETSQWASENWKSIVAAVLINIPENNEDPLLIPPVVLEFLIEFGIFLTKKGLTAAASTLFIIGNVPLSNEPVMADSDVIFESIGNMNTFESILWDEIYEYIFSYDPKFKGFSSILPQKIYHASLLQEQGLNSLGTKYTDYLSSSVRKLPKKDILTINLTRELSEVASRLSESNTGWLAKPKLSSVWGQLDKSFNKYIGGDD

Data set [1] addresses B3. As to the kind of experiment: AUC.
Data set [2] concerns the target T1, Sec31EE (residues 370–746, M540E and L544E) (yeast, UniProt P38968 370-746, M540E | L544E).
T1 sequence (looked up): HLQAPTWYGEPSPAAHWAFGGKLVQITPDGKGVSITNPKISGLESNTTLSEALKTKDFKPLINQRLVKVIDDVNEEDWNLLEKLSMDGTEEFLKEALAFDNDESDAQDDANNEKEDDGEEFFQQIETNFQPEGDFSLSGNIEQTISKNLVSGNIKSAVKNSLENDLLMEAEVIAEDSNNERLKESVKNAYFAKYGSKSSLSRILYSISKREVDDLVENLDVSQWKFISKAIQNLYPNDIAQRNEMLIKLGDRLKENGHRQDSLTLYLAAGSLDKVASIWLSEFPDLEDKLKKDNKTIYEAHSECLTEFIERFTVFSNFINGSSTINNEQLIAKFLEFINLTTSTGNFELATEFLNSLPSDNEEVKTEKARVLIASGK
As to the kind of experiment: SEC. A general note: SEC sorts molecules by how far they enter the pores of the column.

The data set “crystal structure” concerns the molecule itself. Kind of data set: crystal structure.
The data set “AUC” deals with the molecule itself. As to the kind of experiment: AUC.
The data set “SEC” concerns the molecule itself. As to the kind of experiment: SEC.

B1: Sec13 (natural protein, S. cerevisiae, UniProt Q04491 1-297, looked up)
chain: MVVIANAHNELIHDAVLDYYGKRLATCSSDKTIKIFEVEGETHKLIDTLTGHEGPVWRVDWAHPKFGTILASCSYDGKVLIWKEENGRWSQIAVHAVHSASVNSVQWAPHEYGPLLLVASSDGKVSVVEFKENGTTSPIIIDAHAIGVNSASWAPATIEEDGEHNGTKESRKFVTGGADNLVKIWKYNSDAQTYVLESTLEGHSDWVRDVAWSPTVLLRSYLASVSQDRTCIIWTQDNEQGPWKKTLLKEEKFPDVLWRASWSLSGNVLALSGGDNKVTLWKENLEGKWEPAGEVHQ
One may read the stoichiometry N as the number of molecules, sites or subunits per partner or assembly. Consider B1, for which the “stoichiometry N” value in data set [1] was 1 Sec13 per Sec16 (printed 2:2); in data set [2], 1 Sec13 per Sec31EE (printed 1:1).

B2: Sec31ΔL (residues 370–746, deletion of residues 474–507) (domain or fragment, yeast, UniProt P38968 370-746, looked up)
chain: HLQAPTWYGEPSPAAHWAFGGKLVQITPDGKGVSITNPKISGLESNTTLSEALKTKDFKPLINQRLVKVIDDVNEEDWNLLEKLSMDGTEEFLKEALAFDNDESGNIEQTISKNLVSGNIKSAVKNSLENDLLMEAMVIALDSNNERLKESVKNAYFAKYGSKSSLSRILYSISKREVDDLVENLDVSQWKFISKAIQNLYPNDIAQRNEMLIKLGDRLKENGHRQDSLTLYLAAGSLDKVASIWLSEFPDLEDKLKKDNKTIYEAHSECLTEFIERFTVFSNFINGSSTINNEQLIAKFLEFINLTTSTGNFELATEFLNSLPSDNEEVKTEKARVLIASGK
Turning to B2, in the data set “crystal structure”, the binding result is given as “binds”.

Consider B3, for which, in the data set “AUC”, the “stoichiometry N” value is 2 copies of Sec16 in the tetramer.

B4: Sec31 (residues 370–746) (domain or fragment, yeast, UniProt P38968 370-746, looked up)
chain: HLQAPTWYGEPSPAAHWAFGGKLVQITPDGKGVSITNPKISGLESNTTLSEALKTKDFKPLINQRLVKVIDDVNEEDWNLLEKLSMDGTEEFLKEALAFDNDESDAQDDANNEKEDDGEEFFQQIETNFQPEGDFSLSGNIEQTISKNLVSGNIKSAVKNSLENDLLMEAMVIALDSNNERLKESVKNAYFAKYGSKSSLSRILYSISKREVDDLVENLDVSQWKFISKAIQNLYPNDIAQRNEMLIKLGDRLKENGHRQDSLTLYLAAGSLDKVASIWLSEFPDLEDKLKKDNKTIYEAHSECLTEFIERFTVFSNFINGSSTINNEQLIAKFLEFINLTTSTGNFELATEFLNSLPSDNEEVKTEKARVLIASGK
For the molecule B4, the binding result in the data set “SEC” is “binds”.

Values taken from article PMC2922654 (The Journal of Cell Biology, 2010).
